Measurements reported in the domain aggregation screens of Martell et al. (2025).

Test: soluble fraction after stress (log2 fold change); higher = more stays soluble; pooled small domains, quantitative proteomics
Settings: stress: 50 degC
In short: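 Custom libraries of small protein domains were pooled and measured in a high-throughput format, with quantitative proteomics as the read-out. Each library was stressed at 50°C. The value is the log2 fold change in the amount of each protein that stays soluble after stress, used as a measure of aggregation propensity; higher values mean more of the protein stays soluble.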

Sequence | soluble fraction (log2)
HMHNLYAPTQKEVDHARRVVEAAEAAAREGLGVVSLNGKMVDGPVIDRARLVLSRAELSGIRE | 0.072
HMAAADLNMRAKLADLGGMSYGELSIWEKTHGMEFAAWEHEWEKLNSGTQADGLKFPKHLPEGFPT | 0.0468
HMYSYSGSVSNTHDVPVSVVLKDAEGVAIASWDLQAKQSLNISAKDIATSSGTIEITGDGVSETKTVTFTK | 0.391
HMHSDWITWWYLKDKRFDDDYSLWDRQPVHPEYFEVVKEFKAPPESNPGGLDEVKRILRTYIPDAFAP | -0.976
HMREGLRHLRVRMPGGAGETLAMLYREGEVLSQSSDGAFIEVEIRVAQSVAGRLLQMPGVQLTEEVG | -0.21
HMGVGIAEAMKHVADEDYGDLSSEFQRIFSAVDGGSTLGDAVRAQMRATSSAGLRRTLSVLAMSVE | 0.208
HMTPKVDLTVAEDGSASAVIAGLRVEIDAAGKVTAVAPADGTTDLSSVAPEAVKEAMDNALAAYTASKG | 0.0555
HMVRSLADQVYERLRRNIVSGDLAPNARIVELDIAAQMGTSQGPVREALQRLEREGLVQRRAHSATFVTD | -0.279
HMSPEVEEISIDHLKAGMRILSDLRLPNGTLVAPKGSVVDAHFIKIVENYVISYFGNPFPDRIKVIM | -1.4
HMGGTAGKINAIGVNFRTGPSTSYTSLGLLGKDTAVTVIGTSGKWYKVTIVSTGKTGYVYATYVNLTP | -1.81
HMPRNMTFAIRGEYITLDALLKAVGAADSGAQAKHRIAEGEVTVDGVVETRKTRKLRGGETVVVDDLAVVL | -0.272
HMKIVQHQLQLPVHVAGKFKGMFYKSDFVMSEDYDDDGNMILAVRLPLVDWNKFLKRTDNELSQYIKVTP | -0.858
HMDESIPVITYKDSVYANPKAFADAHKLPYKSLHNALSKARKEGKVRFMYKQYNFHLDNNGYIVAVS | 0.166
HMQAESLTVVRSAELKADRFLDAATLQTLQTGQVVESLRTESGWVQVRIAGQQGWVRAMNVKGA | -0.459
HMTNSTGWSKSGGTQVTIREGETIYNLSRRYGVPAKSIMEANGIADATAVRAGQRISIPTYSY | 0.0505
HMRQPAAVEYSTFLDWVHASQVERVVFEGDTIRGVRVTGEGFVTYSPETDNTALIGELKKSRVQISATAP | -0.153
HMDLRIIKTKKAIKTAFLNLLKENKYHNITISAISETALINRKTFYAHYETKDELYADVIEDALRVLSP | 0.0478
HMSKTDYKILYSDLNREDAKQLSLLLEDKKIPYQTSEDGKTIKIPEGMVNRFRMEVATMGVNF | 0.00779
HMPTANFPAMAEALKKQYGPPTGEEETSWTHRLGGVFDIKIQSWNTPQGEMVLRSRGAAMDAGML | 0.439
HMSSESIIIKKLIEEFIHNENKYSPLSDEKLSYLLKNKGFSVARRTVAKYRDELGILSTRERKIKI | -0.745
HMSAVNLNDDEKAVYKSIKSGIRSLDELSLRTGMKIYELMAITVSLEMKGLVTKSPDGTLDAT | 0.147
HMGTFIATVEANSLDIYKSMSSNETIGKANKGEVFQILEDMGSGYARVSYNDVEGYLSIRDGDATIEE | -0.356
HMEEVRFPLKKEILLWALKEAQVDEDEVFRKFTNLEKWINGEKHPTFKQIESLANYLKIPFGYMFLEKPPI | 0.0399
HMTDMYLTYQELRHLGVSQNLISMWKSRKSIDFHMLGGTLYVRYMSIPEQTRSKLALQNVERVYNSRE | -2.55
HMHQIFAETVFEDIAFGPRNKGFNEEEVAKQVREAMAFVGLDYDTYAQRSPFQLSGGQMRRVAIAGVVA | -0.0418

Sequence | soluble fraction (log2)
HMTGPSYTTRRVEAAETMMEFLRTFPQAAPFIGDLYVKAQDWPLGEEIGDRLKKMLPPQLQE | -0.519
HMAPNDELTRQVISVLSGTPQQAFNYKQISKKLNINDSSERRMVSNILRELAGKGEIVEVYQGKYRSKAPA | 0.0588
HMNVLLGISELSHATGVTPAQLRYWVSQGYIKNYGSNKKNKFSLETVFMVRSIKIFQNQGYTLSASAKRAA | 0.0163
HMKPRISMITLGVKDLNKSIEFYGGGLGFPRKKTEPEIAIFKLNGSWLSLYNRGLLAEDANVS | -0.0946
HMDSIKDQIYQILKEDILTGELRSGEQLVEQTIAARFNTSRSPVREAIKQLTGDGLVINITNKGTFVK | 0.168
HMDIDASEVRGIISQYINEPDGRVSYILETIQKKYRYLPEEAIRIVAQELEVPLTQLFGVATFYAAFSL | 0.0443
HMTKYREVLRMSAGGFSQRVIASTLSISRNTVASTLKRAREQNLDWEAVEQQRLSEKDIANLLFP | -0.996
HMLSAQEIPVEDIATRDFVLAEDVVSAKKVLLLPKGVDLSWFGSAKKRLVQRLKSEGVTHIRVFA | -0.0541
HMNMPYGTVKWFNDAKGFGFIAPEDGSADVFVHFSAINSKGFRSLQEGQRVSYEVTTGPKGAQAAGVTPVT | -0.331
HMERTVEVVDINDVFSQFLRLYSRERAAGLLSVFKRVEHGLSWQGNPVLLERILSNVFENAIKYAA | -0.0515
HMRYTAAEMAKKLDISRSYLYYLKEAGVVEIEKNENGKPIWTESVYNQLFEYIKKNHRTEEADNTQ | -0.578
HMQFAEIPNFSEMALQILRLQADGLSITKIAEALHMNPRTVKYHAQENYRKLQASNKSEALLAARNLNL | -1.3
HMGQLIVTIPNFERRPAEQAIQKLEELGLVPEEKQIYHDDIPAGSVIYTDPSKDSQVNAGTKVYVYVSLG | -0.116
HMRRRVIGTLVMGDMSTDFKVLADGHTHRVLAAAISFHKAKPGDEVVILVPKSAPSKWAAVEHVMK | 0.458
HMGAKVFTVPNLIGKYAIEAGIILKKEGLSEGEVKEENSDKYAAGQIIDQYPAADSPAKENDKINYVVSIG | 0.00836
HMNNTIKFSVDIKNSGKRLDIFLSENVTQYTRSYLKRLIENSHVKLNNKILNSPSTKVKFQDQIIINNIE | -1.91
HMKTKHISIAEGMSLYTRDRSPFYWGYLNIEGVIHKKSLKTDVVDEAIKLLSIWKNELLNSITK | -1.28
HMGMSKQKQSSLVRIIMQEISDANEGRMKMSQIIDAALIKGISDSTVRSVISRLSTTGAIYEPQTGTYEW | -0.643
HMNEISLKEITIEEDHPWRDKKIKELDLKEHILVAMIRRKDQDIIPNGETKIYKDDILVIYD | 0.144
HMPDPLVEIRSAVHSNYAGMIAMLGADNRVYLGREEHYSYQDGQPGQYDNRDGSLLFVSDQPDIYYFL | -1.44
HMDRASGEEEALKEAEDAISRVWEFDGPVELNPQNSYLRRLQHELASRYNVKSVSIGQEPNRRVVYYK | -0.0181
HMAPTPAGNLRSLKSEIVNYTRQSSTAYVYTFKDLSSGELYTARASRYYAAAGDTAYISTAAGAITDM | 0.0171
HMLGVKKFGGEAVIAGNIILRQRGTKWITGSNVGIGKDHTLFAKIEGYVVFERMRGRDGQQQISIYP | -0.101
HMSALIGAHTLERIDSRDFEGVVMAWLPKRDGYDSLYKIYHIEDGDFEELDDREVQAAISLFIEGT | -0.431
HMKTQFGTIVKQLRERKGMDQKQLGEIVGVSDKTVSSWEINRTEPKMGIVQQLADYFGVSTDYLIKG | 0.295

Sequence | soluble fraction (log2)
HMRLPNGYGGVTKLSGRRRKPYMVRKTIGWHIDEKTDKKVQDYVVIGYAATKSEALQMLADYNNNPFDV | -3.2
HMEKGLQYRRTDRAIMNAFIKLVNQGSFEKLTVQEILDEALVSRNTFYAHYRDIYDLMDALSN | -1.55
HMKKTITISNYINVRDFATMSELPVNSILSVLMKNGIFVSLNEKIDFDTAWLVGSELGLEVKQKQG | -0.214
HMEAKKVIAVHIIGEINKPGIVELEEGARVIDAIKKAGGTTEKADLAQINLAYILKDGQKIYIPNTEDN | 0.0276
HMDVQTVTVIENVNVRKSASENGQKLGLAYTGEKLELLMKQADGWTRVKYNGETAYVKSDYV | -0.00354
HMNDLVTWDRYKIELGDTLSEIAQKLVTRVDILKTVNQIQGTRIIAGNSLMVPRTTDTNVLTYL | -0.174
HMGQYLDAATVAAVYHAYHARNWTQATLAKELKVARPTLSNVLNGREAPSVELAARIRAFLGSPEP | -1.66
HMQQVIEGLDSDRDFITVPEAIALFAVGRQTLYHYIRSGKIPSVNLGQRLTRLSKKQLGELFPLR | -1.63
HMGYTPGVVIQKSAILEEINQPDLALGMMLEAVKKDSQNLDILNRLVTLLIDQKKNEDAEIYNKKIIT | 0.0254
HMSGAERAAALLVALGPEVASEIMKFLDDESIQKLASEIAKIEVLSPQEKEDLIGQFLLELKKT | -0.214
HMETFEKIKELAKKRGKALGQVEEDLGYGRNTLYKIKNSTPNAERIAEIANYFNVSTDYLLGRTDNPTIAK | 0.203
HMLLAPLRLGAAPDIKAQAPLATILARHNGEMEAKDLWQRFGGEIDAFYLQLKTEVAHGWIVEPEPA | -0.816
HMKPVTVINFVGMTEEKAMTEAEKLGLVVGASSSEYSDEPAGTVIRQSISVSTEAKTGDNIYFTVSKGPE | 0.163
HMSKEGLASLLEDINGLGAIRRKTLIDHFGSVAKIRGARPEEIAALPGMGRKIAEHILASLRED | -0.251
HMRSWRDQRVDDLLAAVSELGMTMSRAAAGDLLDQRVEYVANQMRVTPATARKYLTEETLAGMAREIVFG | -0.693
HMSLNIIEITAKKEINELKSFNIIYFNFDKNNSIYEYKISEREKKEILEIEKIIKNSDNVTNYEIRYSF | -0.52
HMQASPADLLSDRELEVFQLTGEWKTTRQIAQELHLSVKTIEYYREQIKRKLNLKSAAELTQHATAWVQRG | -0.361
HMTGSLRVTSSPSGAEIYVDEIYRGYTPLTIGSLSTGRHEVRLHLSGYQDYTRTVEIESGSQSSFSVTLT | 0.0152
HMNSVTLEHIVYDFRVFNMLKGSGINDIDELIKAAEDGRLFKIIGSNLTYKRIKKSAAEFGVILPDKPG | -0.351
HMAKSDLNYLDFKSKLEAGEIAKASVIRNEDTFKVTLQNGEVYNVTSPDYEDFRKELLEAGVDIQVSK | 0.114
HMTVSRRYTENEMETALKAYLATHNFISRRDMQQEFALTIYSARKWLNHFVDVGLIERIGLKNAPIYKL | -0.4
HMELVEVGDLTGLTVEQAENVLKNSNISISIDKYDESDKYEKDQIISQNPQNKKVKKGTAIHVVLSNGP | 0.0285
HMLLELINLQVKILENEELKIIGKVIDLENEKNNLLVIELLKDQKKVLVPFVKEIVPLIDIKNNFIMINPP | -0.897
HMTQQNRDELYRRMIDAGWDQLVRNGIRSLRVEQVAAAVGIAKGTFYHFFDSKDDFIYAMLMENRQ | -3.07
HMNLVRQHTDYAFRLLVALSQAPGKPISTRTLASAADVPYQFASKIMQKLHEEGLVESVMGPFGGFRLVQ | -2.52
